# Measured values from the supplement of paper PMC9732359.
# ± gives the uncertainty stated by the source.
# Assay: protein stability index of a GFP-peptide fusion (yeast GPS) (PSI 1-4); higher = more stable; sorted into four equal gates, so the index is relative within each strain
# Procedure, shortened: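 Plasmids isolated from each sorting gate were PCR-amplified and Illumina-sequenced, and barcodes assigned the reads to strains. The gates, four of equal size, were set by GFP/Cherry fluorescence ratio on mid-log cultures in leucine-free medium. These cultures were yeast carrying a pooled library of tiled 17-residue yeast protein peptides fused downstream of GFP on a plasmid that also expresses Cherry. The protein stability index is the sum of every gate's read frequency times its gate number.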
Sequence,protein stability index (doa10∆),protein stability index (pdr5∆),protein stability index (san1∆),protein stability index (ubr1∆)
GIGSLTDLMSIVQELLD [RPC34],3.49 ± 0.17,2.91 ± 0.16,3.23 ± 0.13,3.17 ± 0.13
HCYPRQLCQITCQILES [RRP46],1.8 ± 0.059,1.9 ± 0.058,1.72 ± 0.088,2 ± 0.048
LSKIKFPESIWKDFTVE [YCG1],2.59 ± 0.049,1.89 ± 0.04,1.87 ± 0.06,2 ± 0.03
LLIEFPYLPKHYLVLLV [YJR042W/NUP85],1.98 ± 0.06,1.67 ± 0.053,2.07 ± 0.067,1.81 ± 0.047
KKVMPAIVVRQAKSWRR [RPL23A],2.84 ± 0.14,2.85 ± 0.088,2.64 ± 0.16,2.99 ± 0.063
NNDDDDNSVEQGRRLGE [MCD1],,3.46 ± 0.21,,3.37 ± 0.12
HTKFEVAIGLNGKIWVK [RRP40],2.18 ± 0.084,2.48 ± 0.065,2.39 ± 0.072,2.56 ± 0.055
LNVSNTKENGDFTLPED [PRP8],2.98 ± 0.1,3.14 ± 0.11,3.12 ± 0.049,3.21 ± 0.069
SRKQKIAKTFTVDVSSP [RPL22A],2.81 ± 0.08,3.1 ± 0.077,2.95 ± 0.069,2.68 ± 0.05
VMPVPNVRSSVLQKVIE [SKP1],2.33 ± 0.05,2.43 ± 0.052,2.38 ± 0.052,2.35 ± 0.045
PLFFVDLKLLFNTEAEQ [RGR1],2.73 ± 0.077,2.83 ± 0.063,3.19 ± 0.085,3.14 ± 0.057
DLNNAVQKRDEVKEQLG [SMC4],2.95 ± 0.055,2.99 ± 0.056,3.15 ± 0.046,2.83 ± 0.042
DENDSKKNNAASELANP [YAR002W/NUP60],2.97 ± 0.078,2.99 ± 0.052,3.05 ± 0.047,2.97 ± 0.047
SLPHFPKNSKTPQSKGF [RPO31],2.94 ± 0.23,3.08 ± 0.22,2.67 ± 0.18,2.98 ± 0.21
GQNLKDLLVNFSAGAAA [RPP1A],2.27 ± 0.13,2.18 ± 0.2,2.02 ± 0.21,2.13 ± 0.15
ADLPGSYNLEYIESKFC [YMR129W/POM152],3.16 ± 0.13,3.38 ± 0.19,3.13 ± 0.14,3.24 ± 0.093
DVVAKLEAKRKVSSAEY [RPL16A],1.69 ± 0.11,1.7 ± 0.071,,
STQELQTRAKLLDNEIR [RPT5],3.2 ± 0.15,3.05 ± 0.085,3.03 ± 0.083,2.98 ± 0.044
RGPYLVIVPLSTLSNWS [SNF2],1.84 ± 0.051,2.32 ± 0.062,2.17 ± 0.065,2.41 ± 0.035
KTRKTYCKGKTCRKHTQ [RPL42A],2.45 ± 0.068,1.69 ± 0.068,2.75 ± 0.072,2.06 ± 0.043
FDSTAFNATVDETKGFD [MED2],3.25 ± 0.06,3.28 ± 0.063,3.15 ± 0.063,3.21 ± 0.046
NFEKPKNSSQLLNEWSH [RPN5],2.83 ± 0.087,3.11 ± 0.078,2.88 ± 0.063,3.12 ± 0.087
LCKSATTKMWPTNCPLR [BRR2],2.82 ± 0.13,2.68 ± 0.12,2.58 ± 0.081,2.75 ± 0.094
KESAVISKQKSKLDYIF [SMC1],3.04 ± 0.18,2.81 ± 0.11,3.05 ± 0.11,2.98 ± 0.12
NQQPQQQQQQQQNPKFL [SWI1],2.96 ± 0.048,3.02 ± 0.04,2.989 ± 0.026,2.9 ± 0.029
LASFEKTTDHLFDAAFY [RPO31],2.9 ± 0.058,2.79 ± 0.046,2.96 ± 0.05,3 ± 0.043

Sequence,protein stability index (doa10∆),protein stability index (pdr5∆),protein stability index (san1∆),protein stability index (ubr1∆)
VALTGLLIRSKTEDPKG [YML031W/NDC1],1.71 ± 0.041,2.21 ± 0.042,1.73 ± 0.052,2.28 ± 0.032
HGAASFLKERLMEASDA [RPB2],1.37 ± 0.15,1.48 ± 0.09,1.1 ± 0.18,1.03 ± 0.087
VWYGLSDGEDGHIPWHI [SSN2],3.05 ± 0.08,3.25 ± 0.091,3.07 ± 0.053,3.1 ± 0.062
DLTFKLADILKANISLE [RPO21],2.49 ± 0.068,2.68 ± 0.087,2.46 ± 0.067,2.32 ± 0.047
VLAGDTRNITDYSINSR [PRE7],2.93 ± 0.09,3.29 ± 0.075,3.22 ± 0.061,3.24 ± 0.058
YDKKKRVVVPQALRVLR [RPL16B],1.82 ± 0.043,2.09 ± 0.059,2.17 ± 0.084,1.82 ± 0.059
ELLPHYPFVTNDDIEWM [YJR042W/NUP85],2.54 ± 0.13,2.93 ± 0.086,2.87 ± 0.065,2.96 ± 0.073
TPANTNNSTSNANTVFS [SWI1],2.5 ± 0.057,2.75 ± 0.047,2.66 ± 0.04,2.931 ± 0.028
LPPEKIYSPLHSFIKML [SIR2],1.65 ± 0.034,1.88 ± 0.032,1.72 ± 0.05,1.71 ± 0.032
PGDIVRAQVLSLGDGTN [CSL4],3.62 ± 0.24,3.26 ± 0.12,3.14 ± 0.12,3.29 ± 0.12
VQYLSGAHGNSDPVCLF [POP3],2.96 ± 0.12,2.83 ± 0.18,3.04 ± 0.11,2.75 ± 0.063
PRGLNSARKLRVHRRNN [RPS23A],2.39 ± 0.088,3.06 ± 0.079,2.96 ± 0.096,2.8 ± 0.073
VASSTNFTSPTAVVNNA [SWI1],2.64 ± 0.094,2.56 ± 0.12,2.48 ± 0.14,2.91 ± 0.069
DKKASMIISGSRDKTIK [ASC1],2.2 ± 0.17,2.54 ± 0.092,2.63 ± 0.096,1.96 ± 0.079
SYRLLPQINILQPIKGE [RPC40],2.04 ± 0.094,2.1 ± 0.087,1.74 ± 0.067,2.03 ± 0.064
VAPVSEIVNMVPSHVPQ [SIR2],3.01 ± 0.09,2.96 ± 0.069,2.66 ± 0.06,2.87 ± 0.046
MEYLKSSKSLDLNTRIS [RPN5],2.83 ± 0.057,1.69 ± 0.051,2.34 ± 0.063,2.61 ± 0.055
DSLSVPKVSAGDSGISP [SIR4],3.24 ± 0.12,3.24 ± 0.11,3.02 ± 0.084,3.18 ± 0.058
KKEATKPAFSFGINTNT [YLR335W/NUP2],2.99 ± 0.062,3.02 ± 0.086,3.26 ± 0.038,3.35 ± 0.056
KSSELELQKLVHDLNKY [SMC2],3.22 ± 0.088,3.41 ± 0.079,3.36 ± 0.045,3.4 ± 0.05
KLKRNSDRREHDEKLSD [LIN1],3.51 ± 0.23,2.49 ± 0.16,3.22 ± 0.11,2.96 ± 0.13
QQPHYIQRTRERKKSIG [DSN1],2.93 ± 0.067,2.85 ± 0.047,2.63 ± 0.048,2.69 ± 0.051
SEEKIRDYSKEILGINL [SIR4],3.17 ± 0.14,3.03 ± 0.083,2.88 ± 0.073,3.06 ± 0.064
VHNTVAAGNASSLPPGE [SNF5],2.82 ± 0.094,2.75 ± 0.071,2.94 ± 0.06,2.75 ± 0.077
TKGMITNLQRNVDRLYK [NUT2],3.47 ± 0.29,3.35 ± 0.18,2.69 ± 0.24,3.24 ± 0.16
IKENFFERIMILDPQVT [YJL039C/NUP192],1.3 ± 0.062,1.33 ± 0.054,1.29 ± 0.12,1.14 ± 0.05

Sequence,protein stability index (doa10∆),protein stability index (pdr5∆),protein stability index (san1∆),protein stability index (ubr1∆)
LTLKHRQNKVQHQRIVA [RPN10],1.54 ± 0.071,1.97 ± 0.11,2.9 ± 0.25,1.84 ± 0.12
RDYQRINKNSKIALREY [POP4],2.77 ± 0.081,2.29 ± 0.053,2.69 ± 0.076,2.73 ± 0.063
SRILKAQSRNVEIEKRI [YGR119C/NUP57],3.39 ± 0.07,3.15 ± 0.066,2.98 ± 0.067,2.67 ± 0.053
ERLVEFSNVNELQEKNV [YIL149C/MLP2],3.31 ± 0.23,3.36 ± 0.24,,3.1 ± 0.2
VTLNKYCSGNIYDFHKM [YJL039C/NUP192],2.7 ± 0.044,2.81 ± 0.051,2.91 ± 0.04,2.78 ± 0.041
SLKNDLPQFRSSIQESL [ECM29],2.9 ± 0.076,2.92 ± 0.07,3.22 ± 0.077,3.07 ± 0.087
PAHTKYMLIEEAASSNK [ITC1],3.05 ± 0.12,2.93 ± 0.11,3.02 ± 0.1,3.01 ± 0.095
DEFPSELSDSDRQIINE [SIR4],3.53 ± 0.27,3.24 ± 0.16,,2.89 ± 0.15
LDKFTDGGLFTLFVRDQ [QCR2],2.98 ± 0.093,3.14 ± 0.07,3.19 ± 0.055,3.31 ± 0.054
DVCKTRFNHLVTRLFFI [YML031W/NDC1],1.79 ± 0.046,1.53 ± 0.039,1.52 ± 0.072,1.77 ± 0.034
PSTGSNLQQQQQQQIQV [YGR119C/NUP57],,2.55 ± 0.19,,
RGTLTKNLKHIDVTFTK [RPL9A],3.32 ± 0.06,3.25 ± 0.067,3 ± 0.077,2.72 ± 0.065
VGDEFKGYVFKISGGND [RPS6A],3.08 ± 0.28,3.49 ± 0.13,3.06 ± 0.15,3.58 ± 0.13
KSLALLGYNFDGSAIED [SNF5],3.01 ± 0.084,2.99 ± 0.083,2.28 ± 0.072,2.86 ± 0.07
TTRNGFMEAQGAGIQII [FAS2],2.81 ± 0.13,2.31 ± 0.12,,3.26 ± 0.11
DIIWLQRDLGLYVVGLF [RRP6],2.27 ± 0.062,2.22 ± 0.099,1.4 ± 0.1,2.29 ± 0.12
MVVQKYKLSTVVLRLYL [GRR1],1.66 ± 0.069,1.58 ± 0.049,1.38 ± 0.081,1.64 ± 0.068
YQWNLDGLQQLDKYLYV [RPN1],2.92 ± 0.068,3.08 ± 0.058,2.49 ± 0.12,2.2 ± 0.046
YIESKFCPGEIVGKSNV [YMR129W/POM152],2.86 ± 0.1,2.92 ± 0.1,,2.65 ± 0.07
NEKRYATASAIAATAVA [RPL4A],2.29 ± 0.087,1.53 ± 0.056,1.74 ± 0.14,1.5 ± 0.066
GKLAKPRQLHNTHWGLV [RPB2],2.85 ± 0.082,2.84 ± 0.071,2.61 ± 0.068,2.94 ± 0.092
KLLKQPKFDVGALMALH [RPS1A],1.9 ± 0.056,2.16 ± 0.083,1.9 ± 0.084,1.9 ± 0.069
IYAGFGRDTTDYLKNII [RPN2],,2.75 ± 0.21,3.22 ± 0.16,
VFLLTTRAGGLGINLVT [ISW2],1.69 ± 0.076,1.7 ± 0.063,1.56 ± 0.13,1.4 ± 0.13
IRPLSKPMTAYARADTH [RRP6],2.74 ± 0.08,2.9 ± 0.083,2.8 ± 0.065,2.89 ± 0.14
TFSVYHESTSRTDQYTI [YMR129W/POM152],2.63 ± 0.15,2.64 ± 0.077,2.58 ± 0.098,2.62 ± 0.066
